Laboratory results: the nanobody polyreactivity screen of Harvey et al. (2022)

Test: yeast display, Sf9 membrane polyspecificity reagent, FACS + sequencing; frameworks hold sequencing errors
Outline: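 A synthetic nanobody library was expressed on Saccharomyces cerevisiae BJ5465 by galactose induction for 36–48 hours. The library was stained for 1 hour at 4 °C with 10% biotinylated, detergent-solubilized Sf9 membrane reagent and enriched with streptavidin microbeads before FACS. Low and high (top ~1%) gates were set on anti-HA fluorescence for expression and streptavidin fluorescence for reagent binding, and each polyreactivity label reflects the gate of origin.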

Row | Sequence | polyreactivity (PSR sort gate)
1 | QVQLVESGGGLVQAGGSLRLSCAASGLIFRVYAMGWYRQAPGKERELVAAITWSDGSTYYADSVKGRFTISRDNAKNTVYLQMNSLKPEDTAVYYCATAYFRVYHSRYYYWGQGTQVTVSS | high polyreactivity
2 | QVQLVESGGGLVQAGGSLRLSCAASGLIFRYYAMGVYRQAPGHERELVAALTSTGRTYYADSVKGRFTISRDNAKNTVYVQMNSLKPEDTAVYYCNTDQFADYHTDFWSDYEYWGQGTQVTVSS | low polyreactivity
3 | QVQLVESGGGLVQAGGSLRLSCAASGLIFRYYAMGWYRQAPGKERELVAAIRRGGSTYYADSVKGRFTISRDNAKNTVYLQMNSLKPEDTAVYYCAADSYYWRYEYDYWGQGTQVTVSS | high polyreactivity
4 | QVQLVESGGGLVQAGGSLRLSCAASGLIFRYYCMGWSRQAPRKERELVATINRSGGRTYYADSVKGRFTISRDNAKNTDSLQMNSQKRDETAVYYCAALPEVYWIYGPQMDYWGQGTQVNVSS | high polyreactivity
5 | QVQLVESGGGLVQAGGSLRLSCAASGLIFSEYAMGWYRQAPGKERELDAAIRSDGGSTYYADSVKGRFTISRDNAKNTVYLQMNSLKPEDTAVYYCNDRHRSQTRTAMNYWGQGTIVTVSS | high polyreactivity
6 | QVQLVESGGGLVQAGGSLRLSCAASGLIFSGYAMGRYRQAPGKERELVAAITWSGGSTYYADSVKGRFTISRDNAKNTVYLQMNSLKPEDTAVYYCNAKFFQISRYGYWGQGTQVTVSS | high polyreactivity
7 | QVQLVESGGGLVQAGGSLRLSCAASGLIFSPYAMGWYRQAPGKERELVATISVSGGDTYYADSVKGRFTISRDNAKNTVYLQMNSLIPDDTAVYYCAADSFYRYYWGQGTHVTVSS | high polyreactivity
8 | QVQLVESGGGLVQAGGSLRLSCAASGLIFSRYTMGWYRQAPGKERELVAAISKTGSSTYYADSVKGRFTISRDNAKNTVYLQMNSLIPEDTAVYYCAARAYPGYYWGQGTQVTVSS | high polyreactivity
9 | QVQLVESGGGLVQAGGSLRLSCAASGLIFSTYAMGWYRQAPGKERELVAAITNSGGSTYYADSVKGRFTISRDNAKNTDYLQMNSLKPEDTAVYYCARRRSYRDNYWGQGTQVTVSS | high polyreactivity
10 | QVQLVESGGGLVQAGGSLRLSCAASGLIFSVNAMGWYRQAPGKERELVAAITWSSGRTYYADSVKGRFTISRDNAKNTVYLQMNSLKPEDTAVYYCAAVSYWYGQMYYWGHGTQVTVSS | high polyreactivity
11 | QVQLVESGGGLVQAGGSLRLSCAASGLIFSVYVMGWYRQAPGKERELVAGITTGGSTKYADSVKGRFTISRDNAKNTVYLQMNSLKPEDTSVYYCAVGKYNYRGSWDYYWGQGTQVTVSS | high polyreactivity
12 | QVQLVESGGGLVQAGGSLRLSCAASGLIFSWNAMGWYRQAPGKEWELVASISYSGGRTYYADSVKGRFTISRDNAKNTVYLQKNSLKPEDTAVYYCAADTNATTDPQMDYWGQGTQVTVSS | low polyreactivity
13 | QVQLVESGGGLVQAGGSLRLSCAASGLIFSWYDMGWYRQAPGIERELVAAITTDGDDTYYADSVKGRFTISRDNAKNTVYLQLNSLKPEDTAVYYCAADSELAIRYPDRDYDSWGHGTQVTVSS | low polyreactivity
14 | QVQLVESGGGLVQAGGSLRLSCAASGLIFSYNAMGWYRQAPGKERELVASISSGDSTNYADSVKGRFTISRDNAKNTVYLQMNSLKPEDTAVYYCNKVYSWGDYTPPFYFPYDYWGQGTQVTVSS | low polyreactivity
15 | QVQLVESGGGLVQAGGSLRLSCAASGLIFVDNAMGWYRQAPGKERELVAAIESGGSTNYADSVKGRFTISRDNAKNTVYLHMNSLKPEDTAVYYCAADWIYAPWYYQESVEYYYWGQGTQVTVSS | low polyreactivity
16 | QVQLVESGGGLVQAGGSLRLSCAASGLIFVGNAMGWYRQAPGKERELVAAISSRGGRTYYADSVKGRFTISRDNAKNTVYLQMNSLKPEDTAVYYCNAAKSQWGFEYWGQGTQVTVSS | high polyreactivity

Row | Sequence | polyreactivity (PSR sort gate)
17 | QVQLVESGGGLVQAGGSLRLSCAASGLIFVGYAMGWSRQAPGKERELVAAITSGGYTKYADSVKGRFTISRDNAKYSVYLQMNSLKPEDTAVYFCAASGWRKWWSARNYYWGQGTQVTVSS | low polyreactivity
18 | QVQLVESGGGLVQAGGSLRLSCAASGLIFVINAMGWYRQAPGKERELVATISSRVSTNYADSVKGRFTISRDNAKNTVYLQMNSLKPEDTAVYYCNKGQTVSRGYRLYERFDYWGQGTQVTVSS | low polyreactivity
19 | QVQLVESGGGLVQAGGSLRLSCAASGLIFVKYAMGWYRQAPGKERELVAAITSTGGSTYYADSVKGRFTISRDNAKNTVYLQMNILKPEDTAVYYCATDYGYYDYWGQGTQVTVSS | low polyreactivity
20 | QVQLVESGGGLVQAGGSLRLSCAASGLIFVKYARGWYRQAPGKEREFVAAITRSGGTTYYADSVKGRFTISRDNAKNPVYLQMNSLKPEDTAVYYCAAGVVIYFFGGGDYWGQGPQVTVSS | low polyreactivity
21 | QVQLVESGGGLVQAGGSLRLSCAASGLIFVQNAMGWYRPAPGKERELVAAISSRGTNTYYADSVKGRFTISRDTAKNTVYLQMNSLKPEDTAVYYCAKPLKTPRPNYDYWGQGTQVTVSS | low polyreactivity
22 | QVQLVESGGGLVQAGGSLRLSCAASGLIFVSYAMGWYRPAPGKERELVAAINSRGSRTYYADSVKGRFTISRDNAKNTVYLQMNSLKPEDTAVYYCAAGVIRYGGKEEYYYWGQGTQVTVSS | high polyreactivity
23 | QVQLVESGGGLVQAGGSLRLSCAASGLIFVSYGMGWYRQAPGKERELVAAITFSGGSTYYADSVKGRFTISRDNAKNTVYLQMNSLKPEDTAVYYCNADYYPGYDYWGQGTQVTVSS | high polyreactivity
24 | QVQLVESGGGLVQAGGSLRLSCAASGLIFVVYVMGWYRQAPGKERELVAAISGSGDSTYYADSVKGRFTISRDNAKNTVYLQMNSLKPEDTAVYYCNARSISRKKGYPPQRSDGYWGQGTQVTVSS | high polyreactivity
25 | QVQLVESGGGLVQAGGSLRLSCAASGLIFVWYALGWSRQAPGKERELVAAISWRGGTTYYADSVKGRFTISRDNAKNTVYLQMNSLKPEDTAVYYCNAEGSQVDYLRYVWYDMDYWGQGTQVTVSS | low polyreactivity
26 | QVQLVESGGGLVQAGGSLRLSCAASGLIFVYYTMGWYRQAPGKERELVARISQSGGTTYYADSVKGRFTISRDNAKNTVYLQMNSLKPEDTAVYYCNARRVGVHYRYDYWGQGTQVTVSS | high polyreactivity
27 | QVQLVESGGGLVQAGGSLRLSCAASGLIFWAYAMGWYRQAPGKERELVAAINSGGRTYYADSVKGRFTISRDNAKNTVYLQMNSLKPEDTAVYYCAAAGVYSSDYWGQGTQVTVSS | low polyreactivity
28 | QVQLVESGGGLVQAGGSLRLSCAASGLIFWAYAMGWYRQAPGKERELVAAINWRGGSTYYADSVKGRFTISRDNAKNTVYLQMNSLKPEDTAVYYCAADSYYDEYDYCGQGTQVTVSS | low polyreactivity
29 | QVQLVESGGGLVQAGGSLRLSCAASGLIFWAYAMGWYRQAPGKERELVAGISVSGGSTYYADSVKGRFTISRDNAKNTVYLQMNSLKPEDTAVYYCAARLPRTRYWDDYWGQGTQVTVSS | high polyreactivity
30 | QVQLVESGGGLVQAGGSLRLSCAASGLIFWHYAMGWYRQAPGKERELVARISYGGGSTYYADSVKGRFTISRDNAKNTVYLQMNSLKPEDTAVYYCNAKYYSVSQYWYNYWGQGTQVTVSS | high polyreactivity
31 | QVQLVESGGGLVQAGGSLRLSCAASGLIFYAYVMGWYRPAPGKERELVAAITVSGGSTYYADSVKGRFTISRDNAKNTVYLQMNSLKPEDTAVYYCAADWNFYQRTFDSWGQGTQVTVSS | low polyreactivity
32 | QVQLVESGGGLVQAGGSLRLSCAASGLIFYDNMGWSRQAPGKERELVAAISSSGGSTSYADSVKGRFTISRDNAKNTVYVQMNSLKPVDTAVYYCAADSYPAYLGFVGFDYWGQGTQVTVSS | low polyreactivity
